This is an account of results in patent US7422862B2, “Methods for identifying modulators of apoptosis” (The Burnham Institute, priority 2001, dated 2008).

In one test the target is T1, GFP-Bax (Homo sapiens, UniProt Q07812).
T1 construct: expressed in transfected cells; host or cells: Cos-7
The test can be described thus: STS-induced GFP-Bax translocation to mitochondria in Cos7 cells (confocal microscopy). The note with it: peptide transduced with Chariot, 1 μM STS. Type of test: cell-based. Here is the method: (A-B) Humanin peptide prevents STS-induced Bax translocation in vivo. Cos-7 cells were first transfected with GFP-Bax plasmids. After 24 hrs, untagged wild-type or C8P mutant Humanin peptides were introduced into cells using ChariotTM reagent, and 2 h later cells were treated with 1 μM STS. After 4 h, the percentage of cells with translocated Bax was determined (mean±SD; n=3) by confocal microscopy (A) and representative photomicrographs (B). (C) Wild-type or C8P mutant Humanin peptides were introduced into Cos7 cells using ChariotTM reagent. Cytosolic (C) and mitochondria-containing (M) fractions were isolated by differential centrifugation 23 and analyzed by immunoblotting using anti-Bax (top), Hsp60 (middle) (mitochondrial marker), or Tubulin (bottom) (cytosol marker) antibodies. (D) HN or mutant control double-strand siRNAs were transfected into SF268 cells. After 48 h, cells were cultured without (Control) or with 0.1 uM STS. After 24 hr, cells were fractionated and analyzed by immunoblotting as above. (E) Isolated mitochondria were mixed with 400 ng Bax protein, with or without preincubating Bax with 100 uM Humanin or Humanin(C8P) peptides for 10 min. After 3 h at 30° C., mitochondria were centrifuged and the resulting pellets (P) and supernatants (S) were analyzed by immunoblotting using anti-Cytochrome c (top), Hsp60 (middle), and Bax (bottom) antibodies. […]

In the next test the target is Bax (Homo sapiens, UniProt Q07812). The test can be described thus: Suppression of apoptosis induced by Bax over-expression (Humanin mutants). Type of test: cell-based. Further details: expressed in transfected cells; host or cells: HEK293T. The note with it: GFP-fusion polypeptides, 3:1 ratio of HN:Bax plasmid DNA. The method, then: Apoptosis assays were performed as follows. Both floating and adherent cells (after trypsinization) were collected 48 hr after transfection, fixed, and stained using 4′,6-diamidine-2′-phenylindole dihydrochloride (DAPI) for assessing apoptosis based on nuclear fragmentation and chromatin condensation (Fields and Song, supra (1989)).
In order to explore whether a correlation exists between Humanin binding to Bax and Humanin-mediated suppression of apoptosis, Bax was co-expressed with various GFP-fusion polypeptides encoding wild-type, full-length Humanin or various truncation and site-specific mutants of Humanin (Table 1). Expression of all GFP-fusion polypeptides was confirmed by immunoblotting, and ability to bind Bax was determined by co-immunoprecipitation assay. Each Humanin mutant was scored for ability to suppress apoptosis induced by Bax over-expression by >50% using a 3:1 ratio of HN:Bax plasmid DNA. […] Based on these studies, an active region of the 24 amino-acid Humanin peptide, mapped to residues 7-17.
Cell culture and transfections were performed as follows. CSM14.1, HCT116, Cos-7, and SF268 cells were cultured in DMEM high glucose media (Irvine Scientific, Santa Ana, Calif.) containing 10% fetal bovine serum (FBS). PC-3 cells were cultured with RPMI 1640 media containing 10% FBS. Transfection of cells was performed using SuperFect (Qiagen, Chatsworth, Calif.) or LipofectaminePLUS reagent ([…]).

T1 sequence (Q07812 whole entry): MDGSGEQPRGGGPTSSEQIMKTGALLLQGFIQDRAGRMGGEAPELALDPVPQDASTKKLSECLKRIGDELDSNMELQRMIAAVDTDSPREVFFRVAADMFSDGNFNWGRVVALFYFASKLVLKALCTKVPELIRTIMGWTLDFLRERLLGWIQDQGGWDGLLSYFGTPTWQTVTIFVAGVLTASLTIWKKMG
Chain of Bax (Q07812 whole entry, species assumed, the tested form may be a part): as the sequence (Q07812 whole entry) above

Consider “Humanin: 24 amino acid polypeptide, cytosolic form of human Humanin (SEQ ID NO:2); used as synthetic peptide or expressed fusion”, for which the “suppression of GFP-Bax translocation” value in the test with GFP-Bax was “about half”.
In the case of “GFP-HN: Wild-type full-length Humanin fused to Green Fluorescent Protein”, the Bax suppression entry with Bax is listed as “+ (ability to suppress apoptosis induced by Bax over-expression by >50%)”.
